The target in one assay is T1, rat SORT1 (76-752)-His (rat, UniProt O54861 76-752).
T1 construct: range 76-752; Amine-coupled to CM5 chip for SPR
T1 sequence (looked up): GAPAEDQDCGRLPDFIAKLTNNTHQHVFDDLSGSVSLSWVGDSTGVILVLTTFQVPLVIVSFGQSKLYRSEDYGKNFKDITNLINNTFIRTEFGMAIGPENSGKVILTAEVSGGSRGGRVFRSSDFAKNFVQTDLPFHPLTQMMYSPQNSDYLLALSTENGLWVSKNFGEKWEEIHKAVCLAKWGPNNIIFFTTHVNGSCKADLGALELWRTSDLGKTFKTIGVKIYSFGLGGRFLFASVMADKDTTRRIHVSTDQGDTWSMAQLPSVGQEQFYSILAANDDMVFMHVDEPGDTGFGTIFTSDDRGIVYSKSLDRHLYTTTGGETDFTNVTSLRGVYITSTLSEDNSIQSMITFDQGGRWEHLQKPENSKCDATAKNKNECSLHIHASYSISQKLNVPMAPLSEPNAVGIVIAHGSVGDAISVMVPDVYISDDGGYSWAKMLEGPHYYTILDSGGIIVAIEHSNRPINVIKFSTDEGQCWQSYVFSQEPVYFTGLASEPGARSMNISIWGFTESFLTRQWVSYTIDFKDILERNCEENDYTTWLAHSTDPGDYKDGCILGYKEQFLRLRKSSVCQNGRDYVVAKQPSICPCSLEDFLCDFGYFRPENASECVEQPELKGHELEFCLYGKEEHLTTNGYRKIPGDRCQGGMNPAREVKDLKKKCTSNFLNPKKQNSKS
Description: SPR (Biacore 8K), SORT1 on CM5 chip, siRNA-peptide conjugate as analyte, 1:1 model. As to the method:
(§1) SPR analysis was performed on Series S CM5 chips (Cytiva) using a Biacore 8K instrument (Cytiva). Sensorgrams were double-referenced by subtracting the response on both a reference flow cell and a blank sample. Human SORT1 (78-755)-His (Acrobiosystems), human SORT1 (78-755)-His(GenScript), mouse SORT1 (76-753)-His (R&D Systems), rat SORT1 (76-752)-His (GenScript), and cyno SORT1 (76-753)-His (GenScript) were diluted to 20-60 μg/mL in 10 mM sodium acetate pH 4.5 buffer and immobilized onto Series S CM5 chips using amine coupling at a flow rate of 10 μL/min for 45-100 s.
(§2) Ten start-up cycles and a blank cycle preceded each analysis run. The runs were performed by sequential injections of analyte (0-20 nM, 3-fold serial dilutions) with a 90 s association and 900 s dissociation at a flow rate of 30 μL/min, followed by two regeneration cycles with 2 M MgCl2 for 90 s at a flow rate of 10 μL/min. […] Five start-up cycles and a blank cycle preceded each analysis run. The runs were performed by sequential injections of analyte (0-25 nM) with a 150 seconds (s) association and 300 s dissociation at a flow rate of 30 μL/min, followed by a regeneration with 2 M MgCl₂ for 200 s at a flow rate of 10 μL/min. The kinetic rate constants (kₐ and kd) and the equilibrium binding constant (Kd) were calculated using a 1:1 kinetic binding model on the Biacore Insight Evaluation Software (Cytiva).
(§3) SPR analysis was performed on Series S CM5 chips (Cytiva) using a Biacore 8K instrument (Cytiva). Sensorgrams were double-referenced by subtracting the response on both a reference flow cell and a blank sample. The SPR analysis was conducted using four different SORT1 species: Human SORT1, Mouse SORT1, Rat SORT1, and Cyno SORT1. The samples were prepared according to the general procedure described above herein. The kinetic rate constants (ka and […]) and the equilibrium binding constant (Kd) were calculated using a 1:1 kinetic binding model on the Biacore Insight Evaluation Software (Cytiva).

In another assay the target is T2, cyno SORT1 (76-753)-His (cyno, UniProt A0A2K5VHG2 74-751).
T2 construct: range 76-753; Amine-coupled to CM5 chip for SPR
T2 sequence: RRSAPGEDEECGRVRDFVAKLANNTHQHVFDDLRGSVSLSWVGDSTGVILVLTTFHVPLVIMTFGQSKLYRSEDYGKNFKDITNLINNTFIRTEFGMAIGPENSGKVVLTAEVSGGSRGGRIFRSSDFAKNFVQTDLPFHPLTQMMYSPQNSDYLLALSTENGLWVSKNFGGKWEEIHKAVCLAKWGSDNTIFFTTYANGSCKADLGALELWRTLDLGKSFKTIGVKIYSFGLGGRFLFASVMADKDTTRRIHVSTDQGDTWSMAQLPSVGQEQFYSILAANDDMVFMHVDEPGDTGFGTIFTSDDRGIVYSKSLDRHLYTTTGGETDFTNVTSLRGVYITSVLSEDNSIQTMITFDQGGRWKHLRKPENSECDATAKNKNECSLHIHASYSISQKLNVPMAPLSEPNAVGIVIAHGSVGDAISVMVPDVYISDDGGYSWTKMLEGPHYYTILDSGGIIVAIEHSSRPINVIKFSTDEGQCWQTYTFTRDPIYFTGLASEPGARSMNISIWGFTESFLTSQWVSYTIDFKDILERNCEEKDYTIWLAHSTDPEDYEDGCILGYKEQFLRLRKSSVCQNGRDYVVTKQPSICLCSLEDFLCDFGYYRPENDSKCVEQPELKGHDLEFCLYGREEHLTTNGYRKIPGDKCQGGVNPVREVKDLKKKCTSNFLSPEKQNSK
The description is as above. As to the method: as §1, §2, §3

Bridges are numbered along the chain shown (N, C = ends). Where no end group is shown, it is not given here. Side-chain parts run from the residue outwards. [ ]: non-standard residue; d: D form. tBuAla = CC(C)(C)C[C@H](N)C(=O)O; Tle = CC(C)(C)[C@H](N)C(=O)O; linker = not defined here; Nle = CCCC[C@H](N)C(=O)O; siRNA = not defined here

B1: SORT1 peptide 3 conjugate (peptide)
peptide: RWCENK([linker-siRNA])R[Nle]FTCRQ[Tle][tBuAla]
modifications: disulfide 3-11 (inferred); not fully specified; printed as RWCENKR(Nle)FTCRQ(B13)(F02); reading uncertain
notes: also called SORT1 peptide 3 siRNA conjugate
With B1, the Kd with rat SORT1 (76-752)-His amounted to 253 nM; with cyno SORT1 (76-753)-His, 191 nM.

These data come from patent publication US20260183411A1, “TARGETING SORTILIN” (priority 2024, published 2026).
